Results: patent publication US20100124555A1, “Compositions and Methods for Treating Pancreatic Tumors” (UNIVERSITE DE LA MEDITERRANEE, priority 2007, published 2010)

Key:
SOJ-6 cells [1] = assay: Apoptosis by caspase activity (CaspACE FITC-VAD-fmk in situ marker); type: cell-based, human
Protocol: Cells grown in 8-well plates (Polystyrene vessel, BD Falcon) were treated with mAb16D10 or mouse IgM in RPMI with inactivated FCS for 24 hours prior to the addition of CaspACE FITC-VAD-fmk in situ marker (Promega) at a final concentration of 10 μM in the culture medium according to manufacturer's instructions. Then cells were washed in PBS, fixed for 15 minutes in 2% paraformaldehyde, and washed once again. Upon caspase action on FITC-VAD-fmk, apoptotic cells become fluorescent and the number of fluorescent cells was determined in triplicate on collections of 10 fields randomly examined under the fluorescent microscope.

SOJ-6 cells [2] = assay: Nuclear staining with DAPI (nuclear fragmentation); type: cell-based, human; details: RPMI induced no apoptosis
Protocol: After treatment with mAb16D10 or cisplatin, cells were washed in ice-cold PBS, fixed and permeablized with 70% ethanol for 5 min at […] and staining with diluted 1/1000 DAPI solution in PBS for 1 min at room temperature. The cells were then washed with PBS. The nuclear morphology of cells was examined by fluorescence microscopy.

SOJ-6 cells [3] = assay: MTT cell growth and proliferation assay, SOJ-6; type: cell-based, human; details: SOJ-6, increasing concentrations of antibody, 24 h
Protocol: Cell proliferation was determined using MTT assay as previously described (Mosmann et al., 1983 J Immunol Methods, 65(1-2):55-63). Briefly, cells were seeded at subconfluence in appropriate complete media containing 10% FCS in 96-well culture plates. Media were replaced for 24 h by fresh media with 10% inactivated FCS, including increasing concentrations of antibodies directed against FAPP (pAbL64, mAbJ28 and mAb16D10). Cells were washed with PBS and incubated with 100 μl of MTT (0.5 mg/ml) in complete media for 3 h, washed with PBS and finally incubated with DMSO for 30 min at 37° C. Cell growth was determined by measuring absorbance at 550 nm using a MR 5000 microplate spectrophotometer. All independent determinations were done in triplicate and compared to control.

PANC-1 cells = assay: Cell-cycle distribution by propidium iodide flow cytometry, PANC-1; type: cell-based, human
[4] = test system: p53, cyclin D1, GSK-3β in SOJ-6 cells; assay: Western blot of cell cycle regulatory proteins; type: cell-based, human
Protocol: (§1) SOJ-6 cells were grown in 6-well culture plates in RPMI 1640 medium with 10% FCS. At subconfluency, the medium was removed and replaced for 24 hours by fresh RPMI medium with 10% inactivated FCS. SOJ-6 cells were then incubated with mAb16D10 or Cisplatin for 24 hours. At the end of incubation, cells were washed three times with ice-cold PBS (without […] and Mg^++) harvested and pelleted by centrifugation. Pellets were washed twice and lysed at 4° C. in 0.5 ml of lysis buffer (10 mM Tris-HCl pH 7.4, 150 mM NaCl, 1% Triton X-100, 1 mM benzamidine and phosphatase inhibitors). After lysis, homogenates were clarified by centrifugation at 10,000 g for 10 min at 4° C. An aliquot was saved for protein determination using the bicinchoninic acid assay (Pierce, Rockford, Ill.). Proteins (50 μg/lane) in reducing SDS buffer were separated onto 10, 12, or 15% polyacrylamide with 0.1% SDS (according to the molecular weight range of proteins to be separated). After electrophoretic migration, proteins were silver stained. Alternatively, proteins were transferred onto nitrocellulose membranes using a Mini Transblot electrophoretic cell (BioRad, Hercule, Oreg.), and transferred proteins were immunodetected by using appropriate primary and secondary antibodies. After washes, membranes were developed with a chemoluminescent substrate according to the manufacturer's instructions (Roche Diagnostics, Switzerland). In each experiment, a control was included by omitting primary antibodies or by using a non-immune serum.
The expression of different cell cycle regulatory proteins, specifically p53 and cyclin D1, was next analyzed. […] Since cyclin D1 expression may be directly regulated by GSK-3β (Diehl et al., 1998 Genes Dev. 12(22):3499-511), we next focused on the expression level of this kinase in SOJ-6 cells once challenged with mAb16D10.

[5] = test system: E-cadherin, β-catenin in SOJ-6 cells; assay: Immunoblotting and immunofluorescence of E-cadherin/β-catenin complex, SOJ-6; type: cell-based, human
Protocol: as §1
These molecules might confer to these lipid raft domains the role of signalling. Immunoblottings were performed to examine the expression of E-cadherin and of β-catenin by pancreatic tumoral cells.
Several studies have shown that, in the absence of Wnt signalling, the phosphorylation of residues of β-catenin addressed this protein to degradation by the ubiquitin-dependent proteasome pathway (Aberle et al., 1997 EMBO J. 16(13): 3797-804 and Orford et al., 1997 Biol. Chem. 272(40): 24735-8). […] Furthermore, β-catenin may be regulated by GSK-3β, which itself is activated in cells once treated with mAb16D10 (FIG. 11). […] Lastly, we wanted to determine whether the association of E-cadherin, β-catenin, and 16D10 antigen in the rafts microdomains is required for mAb16D10 to induce apoptosis (FIG. 13).

[6] = test system: 16D10 antigen on SOJ-6 cells; assay: Flow cytometry detection of antigen at the cell surface, SOJ-6; type: binding, human
Protocol: Detection of antigens at the surface of SOJ-6 and PANC-1 cells was carried out by indirect fluorescence under the following conditions: cells were released from culture plates by treatment with a non enzymatic dissociation liquid (Calbiochem) for 15 minutes at 37° C. All subsequent steps were carried out at 4° C. The cells were washed with phosphate buffered saline (PBS), fixed with 2% paraformaldehyde in PBS for 15 minutes, and washed with 1% BSA in PBS for 15 minutes. Antigens were exposed for 2 hours to specific antibodies, washed with PBS, and finally incubated for 45 minutes with appropriate FITC-labeled secondary antibodies. Cells were then washed, resuspended in isoflow buffer, and analyzed on Coulter FACSCalibur device.
Flow cytometry experiments were carried out to investigate whether the antigen recognized by 16D10 was found on the surface of cells. Results are shown in FIGS. 14 and 15, representing SOJ-6 and PANC-1 cells, respectively. […] In each case, 16D10 binding was compared to a negative control and a control mouse IgM (Sigma).

living cells in culture = assay: Pulse-chase confocal microscopy internalization; type: cell-based; details: pulse 30 min at 4° C.; chase 2 h at 37° C.
Protocol: A pulse-chase experiment using confocal microscopy was used to assess the interaction of the IgM 16D10 antibody with living cells in culture. (Pulse: 30 min at 4° C.; Chase: 0 or 2 h at 37° C. in culture medium.) It was observed that virtually all of the mAb was internalized within 2 h. A fraction of the mAbs co-localized with LAMP1.

B1: 16D10: IgM monoclonal antibody recognizing FAPP/BSDL; producing cells deposited with the CNCM under the number I-3188 (antibody, listed as Mus musculus, V domains shown)
VH: QVQLQQSDAELVKPGASVKISCKASGYTFTDHAIHWVKQKPEQGLEWIGYISPGNDVIKFNEKFKGKATLTADKSSSTAYMQLNSLTSEDSAVYFCKRSEGGVFDYWGQGTTLTVS
VL: NIMMTQSPSSLAVSAGEKVTMSCKSSQSVLYSSNQKNFLAWYQQKPGQSPKLLIYWASTRESGVPDRFTGSGSGTDFTLTISSVQAEDLAVYYCHQYLSSYTFGGGTKLEIK
- apoptotic cellular death of SOJ-6 cells (number of apoptotic cells/cm2) (SOJ-6 cells [1]; 24 h, compared to RPMI and mouse IgM): leads to the apoptosis of SOJ-6 cells
- apoptosis by caspase activity (number of apoptotic cells compared to control) (SOJ-6 cells [1]; SOJ-6, 24 hours, 16D10 25 μg/ml, recombinant chimeric 16D10 5 μg/ml): clearly enhanced
- caspases through which apoptosis is stimulated (SOJ-6 cells [1]; cells pre-treated with or without caspase inhibitors): stimulates apoptosis through the caspase-3, caspase-8, and caspase-9
- apoptosis observed by DAPI staining (nuclear fragmentation) (SOJ-6 cells [2]): significant levels of apoptosis
- % growth of cells (SOJ-6 cells [3]): does cause a decrease in SOJ-6 cells
- effect on the cell cycle (PANC-1 cells): no effect on the cell cycle was observed
- expression of cyclin D1 [4]: decreased that of cyclin D1
- expression of p53 [4]: increased the expression of p53
- expression of total GSK-3β [4]: constant
- phospho-GSK-3β (inactive form) [4]: a decrease in the phospho-GSK-3β
- phosphorylation of β-catenin ([5]; SOJ-6): phosphorylated
- expression of β-catenin ([5]; SOJ-6, 25 μg/ml, 24 h): did not induce a significant change in the expression of β-catenin
- E-cadherin protein expression ([5]; SOJ-6, 25 μg/ml, 24 h, versus irrelevant IgM): high E-cadherin protein expression
- localization of β-catenin ([5]; SOJ-6, fluorescence microscopy, plasma membrane in untreated cells): found in the cytosolic compartment
- effect of trypsin incubation on binding to SOJ-6 cells ([6]; antibody incubated with trypsin): substantially decrease the binding
- binding to antigen on SOJ-6 cells ([6]; flow cytometry / FACS): found to bind antigen present on SOJ-6 cells
- fraction of mAb internalized (living cells in culture): virtually all
